The nanobody polyreactivity screen of Harvey et al. (2022)

Experiment: yeast display, Sf9 membrane polyspecificity reagent, FACS + sequencing; frameworks hold sequencing errors
Outline: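 Galactose induction of a Saccharomyces cerevisiae BJ5465 synthetic nanobody display library ran 36–48 hours. The cells were then stained for 1 hour at 4 °C with 10% biotinylated, detergent-solubilized Sf9 membrane reagent, pulled down on streptavidin microbeads and FACS-sorted into low and high (top ~1%) gates on expression and reagent-binding fluorescence. Labels for polyreactivity follow the gate of origin.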

**Q.** Which “polyreactivity (PSR sort gate)” value does the source give for “QVQLVESGGGLVQAGGSLRLSCAASGSTLYRYAMGWYRQAPGQERELFATIRSGVNTNYADSVKGRFTISRDNAKNTVYLQMNSLKPEDTAVYYCNARTVYGVYWGRYDYWGQGTQVTVSS” here?
**A.** high polyreactivity

**Q.** Which “polyreactivity (PSR sort gate)” value does the source give for “QVQLVESGGGLVQAGGSLRLSCAASGSTLYSYAMGWYRQAPGKEREFVAAITSDDGSTYYADSVKGRFTISRDNAKNTVYLQMNSLKPEDTAVYYCATAASVEYNYWGQGTQVTVSS” here?
**A.** low polyreactivity

**Q.** Which “polyreactivity (PSR sort gate)” value does the source give for “QVQLVESGGGLVQAGGSLRLSCAASGSTLYYNAMGWYRQAPGKERELVAAITSGGSTSYADSVKGRFTISRDNAKNTVYLQMNSLKPEDTAVYYCAAVFYRRFDYWGQGTQVTVSS” here?
**A.** low polyreactivity

**Q.** Which “polyreactivity (PSR sort gate)” value does the source give for “QVQLVESGGGLVQAGGSLRLSCAASGSTLYYYTMGWYRQAPGKERELVAAINWSGTITYYADSVKGRFTISRDNAKNTVYLQMNSLKPEDTAVYYCNAVYYRQGFDYWGQGTQVTVSS” here?
**A.** high polyreactivity

**Q.** For “QVQLVESGGGLVQAGGSLRLSCAASGSTMRFYAMGWYRQAPGKERELVAAISSSGSSTYYADSVKGRFTISRDNAKNTVYLQMNSLKPEDTAVYYCSGYGYWGQGTQLTVSS”, which “polyreactivity (PSR sort gate)” value is on record?
**A.** high polyreactivity

**Q.** With “QVQLVESGGGLVQAGGSLRLSCAASGSTQFGYAIGWYRQAPGKEREFVAAITSGGNTYYADSVKGRFTISLDNAKYTVYLQMNSLKPEDTAVFYCNKRYRSFAARLRGYDYWGQGTQVTVSS” as the sequence, how does the “polyreactivity (PSR sort gate)” value read?
**A.** high polyreactivity

**Q.** With “QVQLVESGGGLVQAGGSLRLSCAASGSTQKYAMGWYRQAPGKERELVAAIRRTGGSTYYADSVKGRFTISRDNAKNTVYLQMNSLKPEDTAVYYCAADPYNYYVSGYDYWGQVTQVTVSS” as the sequence, how does the “polyreactivity (PSR sort gate)” value read?
**A.** low polyreactivity

**Q.** Which “polyreactivity (PSR sort gate)” value does the source give for “QVQLVESGGGLVQAGGSLRLSCAASGSTQTVNVMGWYRQAPGKEREFVAAINDSGSTYYADSVKGRFTISRDNAKNTVYLQMNSLKPEDTAVYYCATYYWLGLSLYDYWGQGTQVTVSS” here?
**A.** low polyreactivity

**Q.** Which “polyreactivity (PSR sort gate)” value does the source give for “QVQLVESGGGLVQAGGSLRLSCAASGSTRRYYAMGWYRQAPGKERELVAAITRLGSTNYADSVKGRFTISRDNAKNTVYLQMNSLKPEDTAVYYCNTRWRYRPYRYRGDGGDYWAQGTQVTVSS” here?
**A.** high polyreactivity

**Q.** Which “polyreactivity (PSR sort gate)” value does the source give for “QVQLVESGGGLVQAGGSLRLSCAASGSTSAPNAMGWYRQAPGKERELVAAISWTGGSTSYADSVKGRFTISRDNAKNTVYLQMNSLKPPDTAVYYCAKRSYGLTRAYSAGNYWGQGTQVTVSS” here?
**A.** low polyreactivity

**Q.** Which “polyreactivity (PSR sort gate)” value does the source give for “QVQLVESGGGLVQAGGSLRLSCAASGSTSASYAMGWYRKAPGKERELVAAISGRGTTTYYADSVKGRFTISRDIAKNSVYLQMNSLKPEDTAVYYCAVYRRGGVEAFLYWGQGTQVTVSS” here?
**A.** high polyreactivity

**Q.** With “QVQLVESGGGLVQAGGSLRLSCAASGSTSDINAMGWYRQAPGKERELVAAITSRSGSTYYADSVKGRFTISRDNAKNTVYLQMNSLKPEDTAVYYCAAEYVRFYWYTSDYWGQGTQVTVSS” as the sequence, how does the “polyreactivity (PSR sort gate)” value read?
**A.** low polyreactivity

**Q.** For “QVQLVESGGGLVQAGGSLRLSCAASGSTSDLYAMGWYRQAPGKERELVAAITWSGDSTYYADSVKGRFTISRDNAKNTVYLQMNSLKPEDTAVYYCNAEYYDYFDYESDYWGQGTQVTVSS”, which “polyreactivity (PSR sort gate)” value is on record?
**A.** low polyreactivity

**Q.** Which “polyreactivity (PSR sort gate)” value does the source give for “QVQLVESGGGLVQAGGSLRLSCAASGSTSDTNVMGWYRQPPAKERELVAAISNDDDRTYYADSVKGRFTSSRDNAKNTVYLQMNSVKPEDTAVYYCATADDYPGDDYLEGGYWGQGTQVTVSS” here?
**A.** low polyreactivity

**Q.** For “QVQLVESGGGLVQAGGSLRLSCAASGSTSGSYAMGWYRQAPGKERELVATISWSGGRTYYADSVKGRFTISRDNAKNTVYLQMNSLKPEDTAVYYCAARRYAFRYYGYDYWGQGTQVTVSS”, which “polyreactivity (PSR sort gate)” value is on record?
**A.** high polyreactivity

**Q.** For “QVQLVESGGGLVQAGGSLRLSCAASGSTSLYNMGWSRQAPGKERELVAAIDSGSTNYADSVKGRFTISRDNAKNTVYLQMNSLKPEDTAVYYCAADGTNIGVYDRASYRDDYWGQGTQVTVSS”, which “polyreactivity (PSR sort gate)” value is on record?
**A.** low polyreactivity

**Q.** For “QVQLVESGGGLVQAGGSLRLSCAASGSTSNTMTWDGIDRRLGKKGSWLPPITVSGGGTYYADSVKGRFTISRDNANNTVYLQMNSLKPEDTAVYYCATEYELAIYGDDYWGQGTQVTVSS”, which “polyreactivity (PSR sort gate)” value is on record?
**A.** low polyreactivity

**Q.** With “QVQLVESGGGLVQAGGSLRLSCAASGSTSPINAMRWYRQAPGKERELVAVISSSGGRTYYADSVKGRFTISRDNAKNTVYLQMNSLKPEDTAVYYFDKRFSRRQPDYDYWGQGTQVTVSS” as the sequence, how does the “polyreactivity (PSR sort gate)” value read?
**A.** high polyreactivity

**Q.** With “QVQLVESGGGLVQAGGSLRLSCAASGSTSQTYAMGWYRQAPGKERELVASMTRSGVRTYYADSVKGRFTISRDNAKYTVYLQMNSLKPEDTAVYYCAAKYSYGFYRTGYYWGQGTQVTVSS” as the sequence, how does the “polyreactivity (PSR sort gate)” value read?
**A.** high polyreactivity

**Q.** For “QVQLVESGGGLVQAGGSLRLSCAASGSTSQYYAMGWYRQAPGKERELVAVISWSGGSTYYADSVKARFTISRDNAKNTVYLEMNSLKPEDTAVYYCAARYRRRVIATRDYWGQGTQVTVSS”, which “polyreactivity (PSR sort gate)” value is on record?
**A.** high polyreactivity

**Q.** For “QVQLVESGGGLVQAGGSLRLSCAASGSTSSLYTMGWYKQAPGKERELVAAITVSGSRTYYADSVKGRFTISRDNAKNTVYLQMNSLKPEDTAVYYCNAYPYYLVRNMDSWGQGTQVTVSS”, which “polyreactivity (PSR sort gate)” value is on record?
**A.** high polyreactivity

**Q.** For “QVQLVESGGGLVQAGGSLRLSCAASGSTSVPYTMGWYRQAPGKERELVAAISSSGGTTNYADSVKGRFTISRDNAKNTVYLQMNSLKPEDTAVYYCAAEYYQWVAYSWNEMYYWGQGTQVTVSS”, which “polyreactivity (PSR sort gate)” value is on record?
**A.** low polyreactivity

**Q.** With “QVQLVESGGGLVQAGGSLRLSCAASGSTSVQYAKGWYRQAPGKERELVAAIDRSGGSTSYADSVKGRFTISRDNAKNTVYLQMNSLKPEDTAVYYCNADPVRSTYSYDYWGLGTQVTVSS” as the sequence, how does the “polyreactivity (PSR sort gate)” value read?
**A.** low polyreactivity

**Q.** With “QVQLVESGGGLVQAGGSLRLSCAASGSTSVQYAMGWYRQAPGKERELVAAIDRSGGSTSYADSVKGRFTISRDNAKNTVYLQMNSLKPEDTAVYYCNADPVRSTYSYDYWGQGTQVTVSS” as the sequence, how does the “polyreactivity (PSR sort gate)” value read?
**A.** low polyreactivity

**Q.** Which “polyreactivity (PSR sort gate)” value does the source give for “QVQLVESGGGLVQAGGSLRLSCAASGSTSVQYAMGWYRQAPGKERELVAAIDRSGGSTSYADSVKGRFTISRYNAKNTVYLQMNSLKPEDTAVYYCNADPVRSTYSYDYWGQGTQVTVSS” here?
**A.** low polyreactivity

**Q.** With “QVQLVESGGGLVQAGGSLRLSCAASGSTSVVNAMGWYRQAPGKERELVATITRSAGRTYYADSVKGRFTISRDNAKNTVYLQMNSLKPEDTAVSYCAKDTDISTHHSKGRAKSRYDYWGQGTQVTVSS” as the sequence, how does the “polyreactivity (PSR sort gate)” value read?
**A.** low polyreactivity

**Q.** For “QVQLVESGGGLVQAGGSLRLSCAASGSTSWSYAMGWYRQAPGKERELVAAITRTGSTNYADSVKGRFTISRDNAKNTVYLQMNSLKPEDTAVYYCVYATLRYDYWGQGTQVTVSS”, which “polyreactivity (PSR sort gate)” value is on record?
**A.** low polyreactivity

**Q.** For “QVQLVESGGGLVQAGGSLRLSCAASGSTSYNAMGWYIQAPGKERELVAAISDGGGSTYYADSVKGRFTISRDNAKNTVYLQMNSLKPEDTAVYYCAADTITGDGYWGQGTQVTVSS”, which “polyreactivity (PSR sort gate)” value is on record?
**A.** low polyreactivity

**Q.** With “QVQLVESGGGLVQAGGSLRLSCAASGSTSYVYAMGWYRQAPGKERELVAAISGSGGRTYYADSVKGRFTISRDNAKNTVYLQMNSLKPEDTAVYYCAADYIFRRYPVGGIYDYDYWGQGTQVTVSS” as the sequence, how does the “polyreactivity (PSR sort gate)” value read?
**A.** high polyreactivity

**Q.** Which “polyreactivity (PSR sort gate)” value does the source give for “QVQLVESGGGLVQAGGSLRLSCAASGSTSYWYAMGWYRQAPGKESELVATIRSRGGSTSYADSVKGRFTIARDNAKNTVYLQMNSLKPEDTAVNYCNTRKLYQVDYDYLGQGTQVTVSS” here?
**A.** high polyreactivity

**Q.** For “QVQLVESGGGLVQAGGSLRLSCAASGSTVDRYAMGGYRQAPGKERELVAAITSSGGSTYDADSVKGRFTISRDNAKNTVYVQMNSLKPEDTAVYYCNALITYSTDYWGQGTQVTVSS”, which “polyreactivity (PSR sort gate)” value is on record?
**A.** low polyreactivity

**Q.** Which “polyreactivity (PSR sort gate)” value does the source give for “QVQLVESGGGLVQAGGSLRLSCAASGSTVGHYAMGWYRQAPGKERELVAAISVSGGSTYYADSVKGRFTISRDHAKNTVYLQMNSLKPEDTAVYYCAREYAHLSFLSTSSDYWGQGTQVTVSS” here?
**A.** low polyreactivity

**Q.** With “QVQLVESGGGLVQAGGSLRLSCAASGSTVKTYAMGWYRQAPGKERELVAAISWSGGSTYYADSVKGRFTISRDNAKNTVYLQMNSLKPEDTAVYYCNAGWGYPSPWFIGEYWGQGTQVTVSS” as the sequence, how does the “polyreactivity (PSR sort gate)” value read?
**A.** low polyreactivity

**Q.** Which “polyreactivity (PSR sort gate)” value does the source give for “QVQLVESGGGLVQAGGSLRLSCAASGSTVYYNAMGWYRQAPGKERELVAAISRSGGRTYYADSVKGRFTISRDNAKNTVYLQMNSLKPEDTAVYYCAADAPGHEYYYWGQGTQVTVSS” here?
**A.** high polyreactivity

**Q.** With “QVQLVESGGGLVQAGGSLRLSCAASGSTYIANPMGWYRQAPGKEREFLATISRRGGSTYYADSVKGRFTISRDNAKNTVYLQMNSLKPEDTAVYYCAARPLTYIRFRYYYWGQGTQVTVSS” as the sequence, how does the “polyreactivity (PSR sort gate)” value read?
**A.** high polyreactivity

**Q.** For “QVQLVESGGGLVQAGGSLRLSCAASGSTYIDYAMGWYRQAPGKERELVASIRYSGGGTYYADSVKGRFTISRDNAKNTVYFQMNSLKPEDTAVYYCAKDTHLLNEHSGTSREYDYWGQGTQVTVSS”, which “polyreactivity (PSR sort gate)” value is on record?
**A.** low polyreactivity

**Q.** Which “polyreactivity (PSR sort gate)” value does the source give for “QVQLVESGGGLVQAGGSLRLSCAASGSTYPGNAMGWYRQAPGNERELVALINDGADTNYADSVKGRFTISRDNAKNTVYLQMNSLKPEDTAVYYCAKRSLYPTYDYWGQGTQVTVSS” here?
**A.** low polyreactivity

**Q.** Which “polyreactivity (PSR sort gate)” value does the source give for “QVQLVESGGGLVQAGGSLRLSCAASGSTYQGYAMGWYRQAPGKERELVAAISGRSGSTYYADSVKGRFTISRDNAKNTVYLEMNSLKQEDTAVYYFNAVTGVNPSLDYWGQGTQVTVSS” here?
**A.** high polyreactivity

**Q.** With “QVQLVESGGGLVQAGGSLRLSCAASGSTYRYVMGWYRQAPGKERELVAAITYTGGSTYYADSVKGRFTISRDNAKNTVYLQMNSLKPEDTAVYYCAASRYYTFDYWGQGTQVTVSS” as the sequence, how does the “polyreactivity (PSR sort gate)” value read?
**A.** high polyreactivity

**Q.** For “QVQLVESGGGLVQAGGSLRLSCAASGSTYSYYAMGWYRQAPGKERELVAAITSSGSSTYYADSVKARFTISRDNAKNTVYLPMISLKPEDPAVYYCAAGRYRYTYRYFTAWYGYWGQGTQVTVSS”, which “polyreactivity (PSR sort gate)” value is on record?
**A.** high polyreactivity

**Q.** With “QVQLVESGGGLVQAGGSLRLSCAASGSTYYANAMGWYRQAPGKEREFVATISSSDGSTYYADSVKGRFTISRDNAMNTVYLQMYSLKPEDTAVYYCNAADYPEAHSTYYYWGQGTLVTVSS” as the sequence, how does the “polyreactivity (PSR sort gate)” value read?
**A.** low polyreactivity
